# How the values were obtained:
# HeLa Kyoto [1] = experiment: solubility in G1/S (NP-40 vs SDS abundance) (log2 ratio); higher = more soluble; settings: cell cycle stage: G1/S
# HeLa Kyoto [2] = experiment: thermal stability score vs G1/S (z-score of summed log2 fold changes over temperatures); higher = more thermally stable than in G1/S
# HeLa Kyoto [3] = experiment: melting temperature (median over replicates), in situ; higher = more thermally stable
# HeLa Kyoto [4] = experiment: solubility change mitosis vs G1/S (difference of NP-40 vs SDS log2 ratios) (log2 ratio difference); higher = more soluble in mitosis
# [5] = cell cycle stage: early G1 (4.5 h after nocodazole release)
# 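For melting temperature (median over replicates), in situ in this document: HeLa Kyoto cells synchronized by double thymidine or nocodazole block, proteins quantified by TMT10plex mass spectrometry, three independent biological replicates.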
# 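For solubility change mitosis vs G1/S (difference of NP-40 vs SDS log2 ratios) in this document: synchronized HeLa Kyoto cells (double thymidine block for G1/S, nocodazole release for mitosis), protein amounts in NP-40 versus SDS lysates quantified by mass spectrometry, three biological replicates.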
# 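For solubility in G1/S (NP-40 vs SDS abundance) in this document: HeLa Kyoto cells arrested at G1/S by double thymidine block, proteins quantified by TMT10plex mass spectrometry in mild NP-40 versus SDS extracts, three biological replicates.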
# 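For thermal stability score vs G1/S (z-score of summed log2 fold changes over temperatures) in this document: synchronized HeLa Kyoto cells, proteins quantified by TMT10plex mass spectrometry, three biological replicates, mitosis taken 0.5 h after nocodazole release, G1/S directly after double thymidine block.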
sequence,measurement,setting,value
MGRRRAPELYRAPFPLYALQVDPSTGLLIAAGGGGAAKTGIKNGVHFLQLELINGRLSASLLHSHDTETRATMNLALAGDILAAGQDAHCQLLRFQAHQQQGNKAEKAGSKEQGPRQRKGAAPAEKKCGAETQHEGLELRVENLQAVQTDFSSDPLQKVVCFNHDNTLLATGGTDGYVRVWKVPSLEKVLEFKAHEGEIEDLALGPDGKLVTVGRDLKASVWQKDQLVTQLHWQENGPTFSSTPYRYQACRFGQVPDQPAGLRLFTVQIPHKRLRQPPPCYLTAWDGSNFLPLRTKSCGHEVVSCLDVSESGTFLGLGTVTGSVAIYIAFSLQCLYYVREAHGIVVTDVAFLPEKGRGPELLGSHETALFSVAVDSRCQLHLLPSRRSVPVWLLLLLCVGLIIVTILLLQSAFPGFL [PREB],solubility in G1/S (log2),HeLa Kyoto [1],-0.0601
same,thermal stability score,HeLa Kyoto [2]; [5],-0.808
same,thermal stability score,HeLa Kyoto [2]; cell cycle stage: mitosis,-1.93
same,melting temperature,HeLa Kyoto [3]; cell cycle stage: G1/S,53.8 °C
same,melting temperature,HeLa Kyoto [3]; cell cycle stage: mitosis,54.1 °C
same,solubility change mitosis (log2),HeLa Kyoto [4],-0.103
MGRRSRGRRLQQQQRPEDAEDGAEGGGKRGEAGWEGGYPEIVKENKLFEHYYQELKIVPEGEWGQFMDALREPLPATLRITGYKSHAKEILHCLKNKYFKELEDLEVDGQKVEVPQPLSWYPEELAWHTNLSRKILRKSPHLEKFHQFLVSETESGNISRQEAVSMIPPLLLNVRPHHKILDMCAAPGSKTTQLIEMLHADMNVPFPEGFVIANDVDNKRCYLLVHQAKRLSSPCIMVVNHDASSIPRLQIDVDGRKEILFYDRILCDVPCSGDGTMRKNIDVWKKWTTLNSLQLHGLQLRIATRGAEQLAEGGRMVYSTCSLNPIEDEAVIASLLEKSEGALELADVSNELPGLKWMPGITQWKVMTKDGQWFTDWDAVPHSRHTQIRPTMFPPKDPEKLQAMHLERCLRILPHHQNTGGFFVAVLVKKSSMPWNKRQPKLQGKSAETRESTQLSPADLTEGKPTDPSKLESPSFTGTGDTEIAHATEDLENNGSKKDGVCGPPPSKKMKLFGFKEDPFVFIPEDDPLFPPIEKFYALDPSFPRMNLLTRTTEGKKRQLYMVSKELRNVLLNNSEKMKVINTGIKVWCRNNSGEEFDCAFRLAQEGIYTLYPFINSRIITVSMEDVKILLTQENPFFRKLSSETYSQAKDLAKGSIVLKYEPDSANPDALQCPIVLCGWRGKASIRTFVPKNERLHYLRMMGLEVLGEKKKEGVILTNESAASTGQPDNDVTEGQRAGEPNSPDAEEANSPDVTAGCDPAGVHPPR [NSUN2],solubility in G1/S (log2),HeLa Kyoto [1],0.0447
same,thermal stability score,HeLa Kyoto [2]; [5],5.62
same,thermal stability score,HeLa Kyoto [2]; cell cycle stage: mitosis,11.8
same,melting temperature,HeLa Kyoto [3]; cell cycle stage: G1/S,46.6 °C
same,melting temperature,HeLa Kyoto [3]; cell cycle stage: mitosis,49.2 °C
same,solubility change mitosis (log2),HeLa Kyoto [4],-0.00496
MGRSRSRSSSRSKHTKSSKHNKKRSRSRSRSRDKERVRKRSKSRESKRNRRRESRSRSRSTNTAVSRRERDRERASSPPDRIDIFGRTVSKRSSLDEKQKREEEEKKAEFERQRKIRQQEIEEKLIEEETARRVEELVAKRVEEELEKRKDEIEREVLRRVEEAKRIMEKQLLEELERQRQAELAAQKAREEEERAKREELERILEENNRKIAEAQAKLAEEQLRIVEEQRKIHEERMKLEQERQRQQKEEQKIILGKGKSRPKLSFSLKTQD [ARGLU1],solubility in G1/S (log2),HeLa Kyoto [1],-1.03
same,thermal stability score,HeLa Kyoto [2]; [5],-5.79
same,thermal stability score,HeLa Kyoto [2]; cell cycle stage: mitosis,-4.86
same,melting temperature,HeLa Kyoto [3]; cell cycle stage: G1/S,51 °C
same,melting temperature,HeLa Kyoto [3]; cell cycle stage: mitosis,50.4 °C
same,solubility change mitosis (log2),HeLa Kyoto [4],0.866
MGRVVAELVSSLLGLWLLLCSCGCPEGAELRAPPDKIAIIGAGIGGTSAAYYLRQKFGKDVKIDLFEREEVGGRLATMMVQGQEYEAGGSVIHPLNLHMKRFVKDLGLSAVQASGGLLGIYNGETLVFEESNWFIINVIKLVWRYGFQSLRMHMWVEDVLDKFMRIYRYQSHDYAFSSVEKLLHALGGDDFLGMLNRTLLETLQKAGFSEKFLNEMIAPVMRVNYGQSTDINAFVGAVSLSCSDSGLWAVEGGNKLVCSGLLQASKSNLISGSVMYIEEKTKTKYTGNPTKMYEVVYQIGTETRSDFYDIVLVATPLNRKMSNITFLNFDPPIEEFHQYYQHIVTTLVKGELNTSIFSSRPIDKFGLNTVLTTDNSDLFINSIGIVPSVREKEDPEPSTDGTYVWKIFSQETLTKAQILKLFLSYDYAVKKPWLAYPHYKPPEKCPSIILHDRLYYLNGIECAASAMEMSAIAAHNAALLAYHRWNGHTDMIDQDGLYEKLKTEL [PCYOX1],solubility in G1/S (log2),HeLa Kyoto [1],0.102
same,thermal stability score,HeLa Kyoto [2]; [5],1.46
same,thermal stability score,HeLa Kyoto [2]; cell cycle stage: mitosis,0.959
same,melting temperature,HeLa Kyoto [3]; cell cycle stage: G1/S,56.6 °C
same,melting temperature,HeLa Kyoto [3]; cell cycle stage: mitosis,57.1 °C
same,solubility change mitosis (log2),HeLa Kyoto [4],-0.225
MGSGARFPSGTLRVRWLLLLGLVGPVLGAARPGFQQTSHLSSYEIITPWRLTRERREAPRPYSKQVSYVIQAEGKEHIIHLERNKDLLPEDFVVYTYNKEGTLITDHPNIQNHCHYRGYVEGVHNSSIALSDCFGLRGLLHLENASYGIEPLQNSSHFEHIIYRMDDVYKEPLKCGVSNKDIEKETAKDEEEEPPSMTQLLRRRRAVLPQTRYVELFIVVDKERYDMMGRNQTAVREEMILLANYLDSMYIMLNIRIVLVGLEIWTNGNLINIVGGAGDVLGNFVQWREKFLITRRRHDSAQLVLKKGFGGTAGMAFVGTVCSRSHAGGINVFGQITVETFASIVAHELGHNLGMNHDDGRDCSCGAKSCIMNSGASGSRNFSSCSAEDFEKLTLNKGGNCLLNIPKPDEAYSAPSCGNKLVDAGEECDCGTPKECELDPCCEGSTCKLKSFAECAYGDCCKDCRFLPGGTLCRGKTSECDVPEYCNGSSQFCQPDVFIQNGYPCQNNKAYCYNGMCQYYDAQCQVIFGSKAKAAPKDCFIEVNSKGDRFGNCGFSGNEYKKCATGNALCGKLQCENVQEIPVFGIVPAIIQTPSRGTKCWGVDFQLGSDVPDPGMVNEGTKCGAGKICRNFQCVDASVLNYDCDVQKKCHGHGVCNSNKNCHCENGWAPPNCETKGYGGSVDSGPTYNEMNTALRDGLLVFFFLIVPLIVCAIFIFIKRDQLWRSYFRKKRSQTYESDGKNQANPSRQPGSVPRHVSPVTPPREVPIYANRFAVPTYAAKQPQQFPSRPPPPQPKVSSQGNLIPARPAPAPPLYSSLT [ADAM9],solubility in G1/S (log2),HeLa Kyoto [1],-0.486
same,thermal stability score,HeLa Kyoto [2]; [5],-2.54
same,thermal stability score,HeLa Kyoto [2]; cell cycle stage: mitosis,-2.91
same,melting temperature,HeLa Kyoto [3]; cell cycle stage: G1/S,57.3 °C
same,melting temperature,HeLa Kyoto [3]; cell cycle stage: mitosis,56.8 °C
same,solubility change mitosis (log2),HeLa Kyoto [4],-0.00657

# Reference: the supplement of paper PMC5998384
